Test results as given in US20230022970A1, “USE OF GLIAL CELL LINE-DERIVED NEUROTROPHIC FACTOR (GDNF) FOR THE TREATMENT OF ENTERIC NEUROPATHIES” (TRANSFERT PLUS, société en commandite, priority 2019, published 2023).
Where no end group is shown, it is not given here.

Columns and labels:
[1] = system: Hol^Tg/Tg mice (model for Trisomy 21 [Collagen VI]-associated HSCR); assay: GDNF enema treatment, survival of Hol^Tg/Tg pups; format: in vivo, mouse; conditions: 10 μg in 10 μl PBS enema once daily P4-P8, Hol^Tg/Tg mice
Procedure: (§1) For all enema treatments, mutant mouse pups were identified at P3 via pigmentation-based genotyping. Unless specified otherwise (see FIG. 1), 10 μl enemas consisting of a 1 μg/μl solution of recombinant human mature GDNF (Peprotech cat. #450-10) diluted in PBS were administered daily between P4 to P8. […] Other tested molecules (1 μg/μl solution in 10 μl enemas) included the serotonin receptor (5-HT4R) agonist RS67506 (R&D Systems, Cat. #0990), Noggin (Sigma, Cat. # SRP4675), endothelin-3 (Sigma, Cat. # E9137), serotonin (Sigma, Cat. # H9523), and L-ascorbic acid (Sigma, Cat. # A4403). Enemas were administered using a 24-gauge gavage needle (Fine Science Tools, Canada) attached to a micropipette. The head of the gavage needle was introduced in the rectum just beyond the anus (pre-lubricated with Vaseline™), and enemas were injected over the course of a few seconds. Pups were then placed back with their mother, and either sacrificed at P20 for tissue analysis or checked daily to track survival.
It was first tested if GDNF enemas in young mice could enhance enteric neuron numbers and restore function in distal aganglionic bowel using three mouse models of short-segment HSCR. Selected lines were Holstein (Hol^Tg/Tg; a model for Trisomy 21 [Collagen VI]-associated HSCR) (39), TashT (TashT^Tg/Tg; a model for male-biased HSCR) (40), and Piebald-lethal (Ednrb^S-l/s-l; a model for EDNRB mutation-associated HSCR) (41). The enema volume necessary to fill whole colon, concentration of GDNF homodimer (30 kDa), treatment time window, as well as duration and frequency of therapy were first determined with Hol^Tg/Tg pups (FIGS. 1A-D). […] Remarkably, the selected treatment (i.e. daily administration of 10 μg GDNF in PBS as 10 μl enemas for 5 consecutive days between postnatal day [P]4 to P8) prevented death by megacolon in about half of Hol^Tg/Tg mice at P28, the maximum age of survival for control Hol^Tg/Tg mice (FIG. 2A). Most animals surviving to P28 reached adult age after GDNF treatment and mice evaluated could reproduce (two tested breeding pairs were fertile). […]

Hol^Tg/Tg mice = assay: Time-course immunofluorescence of HisGDNF distribution and RET expression in distal colon; format: in vivo, mouse
Procedure: as §1
Tissue labelling and imaging. […] EdU was detected using the Invitrogen Click-iT EdU Imaging Kit (ThermoFisher Scientific, Cat. # C10337) in accordance with the manufacturer's instructions. […]

COc1cc(N)c(Cl)cc1C(=O)CCC1CCN(CCNS(C)(=O)=O)CC1 [RS67506]
life expectancy [1]: failed to increase life expectancy

endothelin-3 (CTCFTYKDKECVYYCHLDIIW; ends and bridges not checked; cysteine pairing not given here; UniProt P14138 97-117, looked up) [endothelin-3 monomer (26 kDa), Sigma Cat. # E9137, tested neurotrophic molecule]
life expectancy [1]: failed to increase life expectancy

B1: Noggin: Noggin homodimer (46 kDa), Sigma Cat. # SRP4675, tested neurotrophic molecule (protein, UniProt Q13253 28-232, looked up)
Noggin: QHYLHIRPAPSDNLPLVDLIEHPDPIFDPKEKDLNETLLRSLLGGHYDPGFMATSPPEDRPGGGGGAAGGAEDLAELDQLLRQRPSGAMPSEIKGLEFSEGLAQGKKQRLSKKLRRKLQMWLWSQTFCPVLYAWNDLGSRFWPRYVKVGSCFSKRSCSVPEGMVCKPSKSVHLTVLRWRCQRRGGQRCGWIPIQYPIISECKCSC
life expectancy [1]: failed to increase life expectancy

B2: HisGDNF: 6×His-tagged version of GDNF used for enema treatments (protein, UniProt P39905 78-211, looked up)
Glial cell line-derived …: SPDKQMAVLPRRERNRQAAAANPENSRGKGRRGQRGKNRGCVLTAIHLNVTDLGLGYETKEELIFRYCSGSCDAAETTYDKILKNLSRNRRLVSDKVGQACCRPIAFDDDLSFLDDNLVYHILRKHSAKRCGCI
modifications: 6xHis tag
notes: 6×His-tagged version of GDNF used for enema treatments
distribution in colon submucosa, smooth muscles and subsets of enteric neurons (Hol^Tg/Tg mice; distal colon 2 h after treatment on P4, P6 and P8, Hol^Tg/Tg): accumulated over time
levels of the main GDNF receptor RET (Hol^Tg/Tg mice; distal colon, P4-P8 treatment, Hol^Tg/Tg): increased
